In general, Kd refers to a measure of binding affinity in units of concentration. A lower Kd goes with a tighter complex.

The target in assay [1] is T1, misfolded/unfolded AL12 kappa light chain.
T1 construct: also called misfolded AL12
Briefly: BLI (Octet), LX-96 on Anti-Mouse IgG Fc Capture biosensors, misfolded AL12 in solution. The procedure:
(§1) FIGS. 13A-13D are bio-layer interferometry sensorgrams of binding interactions between LX-96 and misfolded (FIG. 13A, 13C) or native kappa light chain variants (FIG. 13B, 13D). Binding of LX-96 with its targets at a range of target concentrations was measured by changes in wavelength (nm) over 2000 seconds (300s association, 1700s dissociation). Association and dissociation curves were fit using Octet Systems Software to determine KD, KD Error, X2 and R2 values (table insets; FIGS. 13A-13D).
(§2) We quantified the monovalent binding affinity of LX-96 using bio-layer interferometry (BLI). LX-96 was loaded onto Anti-Mouse IgG Fc Capture (AMC) biosensors and dipped into a solution of varying concentrations of misfolded AL09 (0-200 nM) or native AL09 (0-3000 nM). From the sensorgram, we observed rapid association of misfolded AL09 with LX-96, followed by a slow dissociation step (FIG. 13A). […] This confirms that LX-96 is capable of binding specifically to the misfolded form of different kappa light chain variants at similar, single-digit nanomolar affinities.
Background: In BLI a coated tip is dipped into the sample, and binding shifts an interference pattern.

The target in assay [2] is ATTR amyloid in human cardiac tissue (human, UniProt P02766 21-147). Briefly: immunohistochemistry, ATTR cardiac tissue.
Assay [3] addresses FITC-labeled AL09 under amyloid-forming conditions. Kind of assay: cell-based or functional assay.
The target in assay [4] is T1, misfolded/unfolded AL12 kappa light …. Kind of assay: bio-layer interferometry, Octet fit, table inset. The procedure: as §1, §2
Assay [5] concerns the target T2, IAPP (islet amyloid polypeptide) amyloid in pancreatic tissue (human, UniProt P10997 34-70).
T2 construct: Tissue section; also called IAPP pancreatic tissue
T2 chain (looked up): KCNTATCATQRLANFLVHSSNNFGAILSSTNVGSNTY
Kind of assay: immunohistochemistry, pancreatic tissue.

In assay [6] the target is T3, misfolded/unfolded AL09 kappa light chain.
T3 construct: Same polypeptide as native AL09, in a chemically unfolded, reduced and alkylated state; also called misfolded AL09; mis/unfolded AL09
Briefly: BLI (Octet), LX-96 on Anti-Mouse IgG Fc Capture biosensors, misfolded AL09 0-200 nM in solution. The procedure:
as §1, §2

B1: LX-96 anti-kappa monoclonal antibody (antibody, V domains shown)
VH: QVQLQQPGAELARPGASVKLSCKASGYTFTSFWIQWIKQRPGQGLEWIGSIYPGDGDTRYIQKFRGKATLTADESSSTAYMQLSSLASEDSAIYYCAIVTTAPDYWGQGTTLTVSS
VL: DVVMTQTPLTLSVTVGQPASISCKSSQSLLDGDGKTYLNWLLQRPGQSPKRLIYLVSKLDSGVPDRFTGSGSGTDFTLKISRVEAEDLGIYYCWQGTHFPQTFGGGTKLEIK
notes: Fluorescently labeled in the in vivo localisation assay; also called anti-κ monoclonal antibody
Turning to B1, the results for the Kd in assay [1], in assay [4] and in assay [6] were 7.5 nM, 7.47 nM and 1.12 nM, respectively. Moreover, the binding result in assay [2] and in assay [5] was “no binding” each time. Further, the “inhibition of AL09 aggregation (FITC fluorescence of the soluble fraction at endpoint), IC50” value in assay [3] is less than 1000 nM.
